# Results reported in patent US20230365684A1.
# B1: Lintuzumab (antibody, part only; not given: constant regions, V domains shown, not shown: another chain or arm of the molecule)
# VH: QVQLVQSGAEVKKPGSSVKVSCKASGYTFTDYNMHWVRQAPGQGLEWIGYIYPYNGGTGYNQKFKSKATITADESTNTAYMELSSLRSEDTAVYYCARGRPAMDYWGQGTLVTVSS
# VL: DIQMTQSPSSLSASVGDRVTITCRASESVDNYGISFMNWFQQKPGKAPKLLIYAASNQGSGVPSRFSGSGSGTDFTLTISSLQPDDFATYYCQQSKEVPWTFGQGTKVEIK
# Tests used:
# [1] = biological target: human CD33 on cells (MOLM-13, Kasumi-1, OCI-AML-3, Kasumi-3) (human) (UniProt P20138); assay: flow cytometry on MOLM-13 cells, 4 °C, serial dilutions of the antibody
# [2] = biological target: human CD33 on cells (MOLM-13, Kasumi-1, OCI-AML-3, Kasumi-3) (human) (UniProt P20138); assay: flow cytometry on OCI-AML-3 cells, 4 °C, serial dilutions of the antibody
# [3] = biological target: human CD33 on cells (MOLM-13, Kasumi-1, OCI-AML-3, Kasumi-3) (human) (UniProt P20138); assay: flow cytometry on Kasumi-1 cells, 4 °C, serial dilutions of the antibody
# [4] = biological target: human CD33 on cells (MOLM-13, Kasumi-1, OCI-AML-3, Kasumi-3) (human) (UniProt P20138); assay: flow cytometry on MOLM-13 cells, 4 °C, detection with PE goat F(ab')2 anti-human IgG-Fc
# Chain of human CD33 on cells (MOLM-13, Kasumi-1, OCI-AML-3, Kasumi-3) (human) (P20138 18-364): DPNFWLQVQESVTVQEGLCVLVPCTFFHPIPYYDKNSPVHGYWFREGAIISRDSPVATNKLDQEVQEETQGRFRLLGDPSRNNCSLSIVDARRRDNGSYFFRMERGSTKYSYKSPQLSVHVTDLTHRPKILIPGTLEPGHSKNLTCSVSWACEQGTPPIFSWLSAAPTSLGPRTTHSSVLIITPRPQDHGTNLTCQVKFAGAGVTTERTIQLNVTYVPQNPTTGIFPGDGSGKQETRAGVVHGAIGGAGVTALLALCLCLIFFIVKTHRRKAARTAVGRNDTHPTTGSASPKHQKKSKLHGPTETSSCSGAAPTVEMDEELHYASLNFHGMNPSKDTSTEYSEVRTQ
binder,measurement,setting,value
B1,EC50,[1],0.31 nM
same,EC50,[2],0.9 nM
same,EC50,[3],0.34 nM
same,EC50 (read off the curve),[4],0.04 µg/mL
